Source: article PMC6167206 (Molecular microbiology, 2018)

Target: the molecule itself
Assay: cross-linking

B1: AcpA-His (natural protein)
chain: MEKDISRKIDLLNILIEEKRWFTLFELEKNLNCSSKTIRKDISIINDLLPKTIFIHSKKGKGVKLSLPQNQSISEAISNLLKKSLTFLAIQQLLEERSNTVTSLADKLYLPISSTNIVLKRVSKYIKKFGLSLEKKPLRIVGDEFQIILMFSERYLESYPDTEWPFTEYKEEMLIDYINYIEEKLEIVFYSNDKRRMAFIMTILFKRIKQGHKVKFSEWIIKETMESIYYKKIFEGKNVIKVNKNRSLNIEEQVLLVIMVKLSRYVSKDENNLKQEELVLYKEGESTTYTYVKNFISILEQELKIDLNNNEEFVYGMIEYCREAFHILKFIPILKAPEKDTCKYIKKHYEETFYLVKRAYNKWGAEMKLTDIPDEEIAKVTMRIVAIGKQHNINRKKVLLITGEGKSWEEYMKSRINKRYGDQLKFVGGHAKILNGNTDNIDNIDIDFIITTVPLNFSWKSIVYVSPILQERDFYEIGIFASK
stoichiometry N: 2
